Measurements reported in patent CN1420129A (ZHONGXIN GUOJIAN PHARMACEUTICA, dated 2003).
Where two headings read alike, the source gives them in different places.

Experiments:
Experiment in all cases: cell-based or functional assay
[1] = target: CD20 (on CD20+ B lymphocytes / human B lymphoma cell line DHL-4) (human) (UniProt P11836)
[2] = target: CD20 (on CD20+ B lymphocytes / human B lymphoma cell line DHL-4) (human) (UniProt P11836); remark: listed apart in the source
[3] = target: T1, CD20 (on CD20+ B lymphocytes / human B lymphoma cell line DHL-4) (human, UniProt P11836 1-297)
T1 sequence (looked up): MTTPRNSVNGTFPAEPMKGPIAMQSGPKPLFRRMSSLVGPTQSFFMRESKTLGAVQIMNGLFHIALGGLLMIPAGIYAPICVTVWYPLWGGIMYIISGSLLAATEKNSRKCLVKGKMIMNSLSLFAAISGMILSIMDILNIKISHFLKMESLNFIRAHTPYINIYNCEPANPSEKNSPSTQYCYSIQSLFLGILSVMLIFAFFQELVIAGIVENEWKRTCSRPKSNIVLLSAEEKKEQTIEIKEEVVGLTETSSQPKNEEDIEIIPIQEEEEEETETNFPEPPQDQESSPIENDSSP

Molecule: Rituximab (antibody)
- 存活细胞% (DHL-4 CD20+ cells, cell count and MTT, day 5-7) at 1 μg/ml (% surviving cells) [1]: 66.7
- 存活细胞% (DHL-4 CD20+ cells, cell count and MTT, day 5-7) at 10 μg/ml (% surviving cells) [1]: 32.1
- 存活细胞% (DHL-4 CD20+ cells, cell count and MTT, day 5-7) at 100 μg/ml (% surviving cells) [1]: 19.4
- 存活细胞% (DHL-4 CD20+ cells, cell count and MTT, day 5-7) at 1 μg/ml (% surviving cells) [2]: 50.3
- 存活细胞% (DHL-4 CD20+ cells, cell count and MTT, day 5-7) at 10 μg/ml (% surviving cells) [2]: 12.6
- 存活细胞% (DHL-4 CD20+ cells, cell count and MTT, day 5-7) at 100 μg/ml (% surviving cells) [2]: 29.4

B1: 单克隆抗体7D3 (antibody, V domains shown)
VH: QAQLQQSGAELVRPGASVKMSCKASGYTFTRYNMHWVKQTPRQGLEWIGYIYPGNGDTNYNQKFKGKATLTVDKSSSTAYMQLSSLTSEDSAVYFCARRTYYSNSYWYFDVWGTGTTVTVSS
VL: QIVLTQSPAILSASPGEKVTMTCRASSSVSYMNWYQQKPGSSPKPWIYAPSNLASGVPARFSGSGSGTSYSLTISRVEAEDAATYYCQQWSNNPPTFGAGTKLELKR
- 存活细胞% (DHL-4 CD20+ cells, cell count and MTT, day 5-7) at 1 μg/ml [3]: 99.6 % surviving cells
- 存活细胞% (DHL-4 CD20+ cells, cell count and MTT, day 5-7) at 10 μg/ml [3]: 46.5 % surviving cells
- 存活细胞% (DHL-4 CD20+ cells, cell count and MTT, day 5-7) at 100 μg/ml [3]: 56.7 % surviving cells

B2: 嵌合单抗C7D3 (antibody, human IgG1, V domains shown)
VH: B1 VH
VL: B1 VL
- 存活细胞% (DHL-4 CD20+ cells, cell count and MTT, day 5-7) at 1 μg/ml [3]: 110 % surviving cells
- 存活细胞% (DHL-4 CD20+ cells, cell count and MTT, day 5-7) at 10 μg/ml [3]: 27.3 % surviving cells
- 存活细胞% (DHL-4 CD20+ cells, cell count and MTT, day 5-7) at 100 μg/ml [3]: 39.4 % surviving cells
